Drawing on PMC3561947, this text covers percent of wild type (% of wild type) for one substance.

For this assay, the target named is His-tagged human polι P680A (pJRM86) (human). The assay can be described thus: far-Western, overlay or dot blot.

Regarding “in vitro translated 35S-labeled ubiquitin (from pBP129) (from UniProt P0CG47 1-76) (natural protein)”, the percent of wild type (% of wild type) was 40.
